Laboratory results as given in patent US7708999B2, “Remedies for arthritis” (Kyowa Hakko Kirin Co., Ltd., priority 2001, dated 2010).

Assays:
[1] = test system: rat monoiodoacetic acid-induced osteoarthritis model; assay: Rat monoiodoacetic acid-induced osteoarthritis model; assay type: in vivo; details: 4 mg/mL, 0.5 mL per 100 g intraperitoneally once; 3 days after monoiodoacetic acid
Procedure: The rat monoiodoacetic acid-induced osteoarthritis model was produced in the following manner by the method of Guingamp et al. (Guingamp C. et al., Arthritis Rheum., 40, 1670-1679, 1997) using Sprague-Dawley rats (male, 7 weeks old, Japan Charles River).
Monoiodoacetic acid (manufactured by Sigma-Aldrich) prepared with saline to a final concentration of 10 mg/mL was injected into the right knee joint of the rat in an amount of 25 μL. One group consisted of 10 rats. Anti-FGF-8 neutralizing antibody KM1334 was dissolved in saline (manufactured by Otsuka Seiyaku Kojo) to a final concentration of 4 mg/mL, and the antibody solution at a dose of 0.5 mL per 100 g of the body weight was intraperitoneally administered to a KM1334 administrated group once at the injection of monoiodoacetic acid. To saline group, the saline alone was intraperitoneally administered instead of the antibody solution. Further, a sham operated group was arranged, and the saline was injected in the knee joint thereof without the administration of the agent. After 3 days from the injection of monoiodoacetic acid, the joint washing liquid was recovered by the method described in Example 6. The amount of glycosaminoglycan in the joint lavage fluid was measured by the DMMB method described in Example 1.

FGF-8 = biological target: T1, FGF-8 (Homo sapiens, UniProt P55075); assay: Inhibition by antibody of FGF-8-promoted degradation of extracellular matrix of rabbit chondrocytes; assay type: cell-based; details: FGF-8 100 ng/mL, 48 hours, 1, 3 or 10 μg/mL tested
T1 construct: purchased R & D
T1 sequence (P55075 23-215 isoform P55075-3 limits assumed): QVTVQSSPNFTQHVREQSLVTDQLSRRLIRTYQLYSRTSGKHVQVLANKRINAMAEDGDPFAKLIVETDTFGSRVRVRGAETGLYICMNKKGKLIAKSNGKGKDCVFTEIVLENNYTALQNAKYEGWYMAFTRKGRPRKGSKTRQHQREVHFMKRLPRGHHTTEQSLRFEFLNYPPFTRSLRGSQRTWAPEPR
Procedure: Rabbit articular chondrocytes were isolated from both knees and shoulders of 3-week-old New Zealand white female rabbits and cultured according to the method of Tamura et al. (Tamura T. et al., Eur. J. Pharmacol., 419, 269-274, 2001). That is, the joints of both knees and the joints of both shoulders were isolated to collect the epiphyseal cartilages. […] The culture solution was removed, and the amount of glycosaminoglycan in extracellular matrix remaining on the plate was measured by the dimethymethylene blue (DMMB) method (Chandrasekhar S. et al., Anal. Biochem. 161 103-108, 1987). […] To 75 μL of this digested solution were added 25 μL of a guanidine hydrochloride buffer (2.88 mol/L guanidine hydrochloride, 50 mmol/L sodium acetate, pH 6.8) and 200 μL of a DMMB solution, and the absorbance was measured at 530/590 nm. The concentration of glycosaminoglycan of each sample was calculated from the absorbance of chondroitin sulfate (derived from whale cartilages, manufactured by Seikagaku Kogyo) used as a standard. Three experiments were performed for each condition and the mean values and the standard error were calculated.

B1: KM1334: anti-FGF-8 neutralizing monoclonal antibody produced by hybridoma KM1334 (FERM BP-5451), mouse IgG1 subclass (antibody, V domains shown)
VH: QVQLQQSGAEVARPGASVKLSCKASGYTFTDYYLNWVKQRSGQGLEWIGEIDPGSDSIYYNENLEGRATLTADKSSSTAYMQLNSLTSEDSAVYFCARYGYSRYDVRFVYWGQGTLVTVST
VL: DVLMTQTPLSLPVSLGDQASISCRSSQSLVHSNGRTYLEWYLQKPGQSPKVLIYKVSNRISGVPDRFSGSGSGTDFTLKISRVEAEDLGVYFCFQGSHVPYTFGGGTKLEIK
In the case of B1, the “inhibition of the increase in concentration of glycosaminoglycan in the joint lavage fluid” value [1] is reported as 42% and the “antibody concentration at which the promotion of degradation of extracellular matrix of the cartilage with FGF-8 was significantly inhibited” value (FGF-8) is reported as ≥ 3 µg/mL.
